Experimental data: the nanobody polyreactivity screen of Harvey et al. (2022)

Assay: yeast display, Sf9 membrane polyspecificity reagent, FACS + sequencing; frameworks hold sequencing errors
Summary of the method: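 A nanobody's polyreactivity label depends on the gate it was sorted from. Yeast display cells were stained with 10% biotinylated, detergent-solubilized Sf9 membrane reagent for 1 hour at 4 °C, enriched on streptavidin microbeads and sorted by FACS. The low and high (top ~1%) gates were set on anti-HA fluorescence for expression and streptavidin fluorescence for reagent binding.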

**Q.** For “QVQLVESGGGLVQAGGSLRLSCAASGRTSSRYVMGWYRQAPGKERELVASLSRSGGSTSYADSVKGRFTISRDNAKNTVYLQMISLKPEDTAVDYCYARTSFQRGGGFWGQGTQVTVSS”, which “polyreactivity (PSR sort gate)” value is on record?
**A.** high polyreactivity

**Q.** With “QVQLVESGGVLVQAGGSLRLSCAASGSIFSSNAMGWYRQAPGKERELVAAISSSGGSTYYADSVKGRFTISRDNAKNTVYLQMNSLKPEDTAVYYCATGKQVYGHYYWGQGTQVTVSS” as the sequence, how does the “polyreactivity (PSR sort gate)” value read?
**A.** low polyreactivity

**Q.** Which “polyreactivity (PSR sort gate)” value does the source give for “QVQLVESGGGLVQAGGSLRLSCAASGFIFWSYAMGWYRQAPGKERELVAAIDLTGGSTYYADSVKGRFTISRDNAKNTVYLQMNSLKPEDTAVYYCNADGDSYAFTNSDSGFDYWGQGTQVTVSS” here?
**A.** low polyreactivity

**Q.** With “QVQLVESGGGLVQAGGSLRLSCAASGSTFYQNAMGWYRQAPGKERELVAAISSSGRTYYADSVKGRFTISRDNAKNTVYLQMNSLKPEDTAVYYCAVGAYGSLYSIRVAYGSMDYWGQGTQVTVSS” as the sequence, how does the “polyreactivity (PSR sort gate)” value read?
**A.** high polyreactivity

**Q.** Which “polyreactivity (PSR sort gate)” value does the source give for “QVQLVESGPGLVQAGGSLRLSSAASGLTFRWNGMGWYRQATGKERELVAAITGNAGSTYYADSVKGRFTISRDNAKNTVYLQMKSLNPEDTAVYYCAARLRYYYLVGYGYWGQGTQVTVSS” here?
**A.** high polyreactivity

**Q.** With “QVQLVESGGGLVQAGGSLRLSCAASGNIFNYNAMGWYRQATGNERELVAAISFSGGSTYYADSVKARFTISRDNAQNTVYLQMNSLKPEDTAVYYCAKAERNYFEYWGQGTQVTVSS” as the sequence, how does the “polyreactivity (PSR sort gate)” value read?
**A.** high polyreactivity

**Q.** With “QVQLVESGGGLVQAGGSLRLSSAASGRIFPGYSMGWYRQAPGKERELVASISRTGRTNYADSVKGRFTNSRDNAKNTVYLPMHSLKPEDTAVYYCAAGIVVTGYDYWGQGTQVSVSS” as the sequence, how does the “polyreactivity (PSR sort gate)” value read?
**A.** low polyreactivity

**Q.** Which “polyreactivity (PSR sort gate)” value does the source give for “QDQHVDSGGGLVQAGGSLRLRCAASGFTIADYAMGWYRQAPGKERELVAAINRSGGRTYYADSVKGRFTISRDYAKNTVYLQMNMLKPEDTAVYYCAAYGITYHNSDSWGQGTQVTVSS” here?
**A.** high polyreactivity

**Q.** For “QVQLVESGGGLVQAGGSLRLSCAASGRTFFTYAMGWYRQAPGKERELVAAITGSGGSTSYADSVKGRFTISRDNAKNTVYLQMNSLKPEDTAVYYCAADWQELEYDYWGQGTQVTVSS”, which “polyreactivity (PSR sort gate)” value is on record?
**A.** low polyreactivity

**Q.** Which “polyreactivity (PSR sort gate)” value does the source give for “QVQLVESGGGLVQAGGSLRLSCAASGFTFGANDMGRYIQAPGKERELVATISSSGGTTYYADSVKGRFTISRDNAKYTVYLQMNSLKPEDTAVYYCAAKGLFTGRVSRYADDHWGQGTEVTVSS” here?
**A.** low polyreactivity

**Q.** With “QVQLVESGGGLVQAGGSLRISCAASGSIFTINAMGWYRQAPGKERELVARITSVDSTNYADSVKGRFTISRDNAKNNVHLQMNSLKPEDTAVYYCNATFGYPFVDYDDYWGQGTQVTVSS” as the sequence, how does the “polyreactivity (PSR sort gate)” value read?
**A.** low polyreactivity

**Q.** With “QVQLVESGGGLVQSGGSLRLSCAASGLTFLNNALGWYRQAPGKERELVAAISDGGSPNYADSVKGRFTISRDNAKNTVFLQMNSLKPEDTAVYYCAAVYTSASYGSWGQGTQVTVSS” as the sequence, how does the “polyreactivity (PSR sort gate)” value read?
**A.** low polyreactivity

**Q.** With “QVQLVDSGGGLVQAGGGLRLSCAASGRIFVKYGMGWYRQAPGKERELVAAISWTGGSTYYADSVKGRFTISRDNEKNTVYLQMNSLKPEDTAVYYCAKSFGIWHARWLTYDYWGQGTQVTVSS” as the sequence, how does the “polyreactivity (PSR sort gate)” value read?
**A.** low polyreactivity

**Q.** For “QVQLVESGGGLVQAGGSLRLSCAASGRIFDKYAMGWYRQAPGKERELVAAIDWSGGSTYYADSVKGRFTISRDNAKNTVYLQMNSLKPEDTAVYYCAAYWYYEDGQSEARLYGYDYWGQGTQVTVSS”, which “polyreactivity (PSR sort gate)” value is on record?
**A.** low polyreactivity

**Q.** Which “polyreactivity (PSR sort gate)” value does the source give for “QVQLVESGGGLVQAGGSLRLSCAASGRIFYRYAMGWYRQAPGKERELVAAISGSVGSTYADSVKGRFTISRDNAKNTVYLQMNSLKPEDTAVYYCARETYRRYGAYDYWGQGTQVTVSS” here?
**A.** low polyreactivity

**Q.** With “QVQLVESGGGLVQAGRSLRLSCAASGLISRRNAMGWYRQAPGKQRELVAAISTGSSTNYADSVKGRFTISRDNAKNTVYLQMNSLKPEDTAVYYCASTQYWWSTLGIRDDYWGQGTQVTVSS” as the sequence, how does the “polyreactivity (PSR sort gate)” value read?
**A.** low polyreactivity

**Q.** With “QDQLVESGRGLVQAGGSLRLSCAASGNTFYRYTMGWYRQAPGNERELVDAISGRGGSTTYADSVKGRFTISRDPAKNTVYLQMKSLIPEDTAVYYCAAVTGGTAYYASTYYYWGQGTQVTVSL” as the sequence, how does the “polyreactivity (PSR sort gate)” value read?
**A.** high polyreactivity

**Q.** For “QVQLVESGGGLDQAGGSLRLICDAYGSTFNWNAMGWYRQAPGKERELVAAISSGGSTNYADSVKGRFTISRDNAKNTVYLQMNSLKPEDTAVYYCARQHSRWYSGYKYNYWGQGTQVTVSS”, which “polyreactivity (PSR sort gate)” value is on record?
**A.** high polyreactivity

**Q.** Which “polyreactivity (PSR sort gate)” value does the source give for “QVQLQESGGGLVQAGGSLRLSCAASGSIFQYGYMGWYRQAPGKEREFVAGIGGGTSNYADSVKGRFTISRDNAKNTVYLQMNSLKPEDTAVYYCNTDAGDYYGENYWGQGTQVTVSS” here?
**A.** low polyreactivity

**Q.** With “QVQLVESGGGLVQVGGSLRLICAASGGIFSGNAMGWYRQAPGKERELVAGITNGGRTTYADSVKGRFTISRDNAKNTVYLQMNSLKPEDTAVYYCAAGKIGRRGHQNRLDLDYWGQGTQVTVSS” as the sequence, how does the “polyreactivity (PSR sort gate)” value read?
**A.** low polyreactivity

**Q.** For “QVQLVESGGGLVQAGGSLRLSCAASGRIFYYYAMGWYRQAPGKERELVAAITWSGGSTYYADSVKGRFTISRDNAKNTVYLQMNSLKPEDTAVYYCAAEWAYWDEWSGDYYLLGYWGQGTQVTVSS”, which “polyreactivity (PSR sort gate)” value is on record?
**A.** high polyreactivity

**Q.** Which “polyreactivity (PSR sort gate)” value does the source give for “QVQLEESGGGLVQAGGSLRLSCAASGGIFDYNSMGWYRQAPGKERELVAAISSGASTTYADSVKGRFTISRDNAKNTVYLQMNSLKPEATAVYYCAAYWKSRYLSGLEYYSWGQGTQVTVSS” here?
**A.** low polyreactivity

**Q.** Which “polyreactivity (PSR sort gate)” value does the source give for “QVQLVESGGGLVQAGGSLRLSCAASGFTFDYNAMGWSRQAPGKERELVAVISSSGSRTYYADSVKGRFTISRDNAKNTVYLQMNSLKPEDTAVYYCAAARIGTRDYWGQGTQVTVSS” here?
**A.** high polyreactivity

**Q.** For “QVQLVESGGGLVQARGSLRLSCAASGRIFPVNTMGWYRQAPGKERELVAAITSGGGTYYADSVKGRFTISRDNAKNTVYFQMNSLKPEDTAVYYWTAPEGRKPYDSWGQGTQVTVSS”, which “polyreactivity (PSR sort gate)” value is on record?
**A.** low polyreactivity

**Q.** For “QVQLVESGGGLVQAGGSLRLSCAASGGIFGRYAMGWYIQAPGKERELFAAISKRGGSTYYADSVKGRFTISRDNAKNTVYLQMNSLKPEDTAVYYCNAYRLSYTTFGKADGDYWGQGTQVTVSS”, which “polyreactivity (PSR sort gate)” value is on record?
**A.** high polyreactivity

**Q.** For “QVQLVESGGGLVQAGGSLRLSCAASGSTFGKYAMGWYRQAPGKERELVAAITTGGNTSYADSVKGRFTISRDNANNTVYLQMNSLKPEDTAVYYCNAKRSFRVDYWGQGTQVTVSS”, which “polyreactivity (PSR sort gate)” value is on record?
**A.** low polyreactivity

**Q.** Which “polyreactivity (PSR sort gate)” value does the source give for “QDPLVESGGLLVQAGGSLRLSCAASGFTFSRYAMGWYRQAPGKERELVAVIDNSGGTTYYADSVKGRFTISRDNAKNTVYLQMNSLKPEDTAVYYCAAKRIPRYYSASDYWGQGTQVTVSS” here?
**A.** low polyreactivity

**Q.** Which “polyreactivity (PSR sort gate)” value does the source give for “QVQLVVSGGGLVQAGGSLRLSCAASGITFYYNAMGWYRQAPGKEGEVVAAITRRGGSTYYADSVKGRFTISRDNAKNTVYLQMNSLIPEDTAVYYCAKYIYGYKDSPLGDDYWGQGTQVTVSS” here?
**A.** high polyreactivity

**Q.** Which “polyreactivity (PSR sort gate)” value does the source give for “QVQLVESGGGLVQAGGSLRLICAASGRTNGVYVMGLYRQAPGKERELVAAIRKGVGSTYYADSVKGRFTISRDNAKNTVYLQMNSLKPEETAVYYCAADTRHYRYGYWGQGTQVTVSS” here?
**A.** low polyreactivity

**Q.** With “QVQLVESGGGLVQAGGSLRLSCAASGRTFGYYAMGWYRQAPGKVRELVASISSSGGNTYYADSVKGRFTISRDNAKNNVYLQMNSLKPEDTAVYYCAATYGWWPRDYYYWGQGTQVTVSS” as the sequence, how does the “polyreactivity (PSR sort gate)” value read?
**A.** high polyreactivity
